Results: publication PMC8413711 (2021)
Numbering of substitutions follows the chain as printed.

B1: BD-623 (antibody, V domains shown)
VH: EVQLVESGGGLVQPGGSLRLSCAASGFTVSSNYMSWVRQAPGKGLEWVSIIYSGGSTYYADSVKGRFTISRDNSKNTLYLQMNSLRAEDTAVYYCARDYAGRVWGQGTLVTVSS
VL: QSALTQPASVSGSPGQSITISCTGTSSDVGSYNLVSWYQQRPGKAPKLILYEVTKRPSGVSNRFSGSKSGNTASLAISGLQAEDEADYYCCSYAGSSTWVFGGGTKLTVL
B2: BD-515 (antibody, V domains shown)
VH: EVQLVESGGGLVQPGGSLRLSCAASEFIVSRNYMSWVRQAPGKGLEWVSVIYSGGSTFYADSVKGRFTISRDNSKNTLYLQMNSLRAEDTGVYYCARDRGLVSDYWGQGTLVTVSS
VL: DIQMTQSPSSLSASVGDRVTITCQASQDINKYLNWYQQKPGKAPKLLIFDASHLETGVPSRFSASGSGTDFTFTISSLQPEDIATYYCHQYDNLPRTFGQGTRLEIK
B3: BD-503 (antibody, V domains shown)
VH: EVQLVESGGGLIQPGGSLRLSCAASGLIVSSNYMSWVRQAPGKGLEWVSVLYAGGSTDYAGSVKGRFTISRDNSKNTLYLQMNSLRAEDTAVYYCARDAAVYGIDVWGQGTTVTVSS
VL: not shown
B4: BD-604 (antibody, V domains shown)
VH: EVQLVESGGGLIQPGGSLRLSCAASGIIVSSNYMTWVRQAPGKGLEWVSVIYSGGSTFYADSVKGRFTISRDNSKNTLYLQMSSLRAEDTAVYYCARDLGPYGMDVWGQGTTVTVSS
VL: DIQLTQSPSFLSASVGDRVTITCRASQGISSDLAWYQQKPGKAPNLLIYAASTLQSGVPSRFSGSGSGTEFTLTISSLQPEDFATYYCQQLNSDLYTFGQGTKLEIK
B5: BD-508 (antibody, V domains shown)
VH: B4 VH with I12V, I27F, D72H, Y79F, S83N, L99A, G100Q, P101N
VL: DIQMTQSPSSLSASVGDRVTITCRASQSISSYLNWYQQKPGKAPKLLIFAASSLQTGAPSRFSGSGSGTDFTLTISSLQPEDFATYYCQQSYSTPPYTFGQGTKLEIK

The binders below were run against T1, SARS-CoV-2 RBD (SARS-CoV-2, UniProt P0DTC2 319-541) (assay: SPR).

Compared with B1, B2 is 4.7-fold higher in Kd: 0.12 nM for the first, 0.561 nM for the second.

Going from B3 to B4, the Kd falls from 0.204 nM to 0.012 nM (17-fold).

B5 gave a Kd of 1.3 nM.

Molecular target: T1, SARS-CoV-2 RBD
Assay: SPR
Remark: another data set of the same source

B2 and B5 are within 1.5-fold of each other in koff: 0.000389 s⁻¹ for the first, 0.000514 s⁻¹ for the second.
